Laboratory results as given in publication PMC3344845, “Structure of Bradavidin – C-Terminal Residues Act as Intrinsic Ligands” (PLoS ONE, 2012).

Key:
[1] = molecular target: core-bradavidin (Bradyrhizobium japonicum); assay: ITC; core-bradavidin in the cell, ligand (Brad-tag or Brad-tag–EGFP) in the syringe, 15°C, 50 mM sodium phosphate pH 7.0, 100 mM NaCl; n is the stoichiometry per subunit
[2] = molecular target: core-bradavidin (Bradyrhizobium japonicum); assay: as above; remark: listed apart in the source
[3] = molecular target: core-bradavidin (Bradyrhizobium japonicum); assay: ITC; core-bradavidin, avidin, streptavidin or rhizavidin in the cell, Brad-tag in the syringe, 40°C, 50 mM sodium phosphate pH 7.0, 100 mM NaCl; n is the stoichiometry per subunit

Kd [1]: 25 µM
dH [1]: 1.7 kcal mol^–1
stoichiometry N [1]: 0.94
dH [2]: 1.1 kcal/mol
Kd [3]: 26 µM
dH [3]: -4.4 kcal mol^–1
stoichiometry N [3]: 0.62
Binder: SEKLSNTK [Brad-tag (synthetic peptide SEKLSNTK)]
